In publication PMC4899739:

Molecular target: chicken type I interleukin-1 receptor (chicken)
Assay: SPR; BIAcore 3000, 25 °C; chicken IL-1RI (5 μg/ml in 10 mM sodium acetate, pH 5.5) immobilised on a CM5 chip by amine coupling (~370 RU); IL-1β or mutant flowed at 30 μl/min in 10 mM HEPES pH 7.2, 150 mM NaCl, 0.001% Tween-20; 90 s association and dissociation; 1:1 Langmuir fit

Substance	Kd
wild-type chicken interleukin-1 beta (ligand)	0.12 nM
chicken interleukin-1 beta mutant E118K (ligand)	0.37 nM
chicken interleukin-1 beta mutant T117A (ligand)	0.23 nM
